# In patent US20110105394A1 (Novo Nordisk, published 2011):
# *1 amine or outer side, *2 acyl side, *3 side chain or, on linkers, in order; H or OH if unused. Bridges are numbered along the chain shown (N, C = ends). Where no end group is shown, it is not given here. The star is where a group is joined. X2 = (S)‑4‑Carboxy‑4‑(19-carboxynonadecanoylamino)butyryl, O=C(O)CCCCCCCCCCCCCCCCCCC(=O)N[C@@H](CCC(=O)*)C(=O)O; X1 = (S)‑4‑Carboxy‑4‑(17-carboxyheptadecanoylamino)butyryl, O=C(O)CCCCCCCCCCCCCCCCC(=O)N[C@@H](CCC(=O)*)C(=O)O; C20 diacid = O=C(O)CCCCCCCCCCCCCCCCCCC(=O)*; γGlu = O=C(O)[C@H](CCC(=O)[*:2])N[*:1]; AEEA = NCCOCCOCC(=O)O
# T1: Amylin 3(a) receptor (human calcitonin receptor (CTa) with RAMP-3) (human, UniProt P30988 25-474; O60896 24-148, limits assumed)
# T1 sequence (looked up) 1: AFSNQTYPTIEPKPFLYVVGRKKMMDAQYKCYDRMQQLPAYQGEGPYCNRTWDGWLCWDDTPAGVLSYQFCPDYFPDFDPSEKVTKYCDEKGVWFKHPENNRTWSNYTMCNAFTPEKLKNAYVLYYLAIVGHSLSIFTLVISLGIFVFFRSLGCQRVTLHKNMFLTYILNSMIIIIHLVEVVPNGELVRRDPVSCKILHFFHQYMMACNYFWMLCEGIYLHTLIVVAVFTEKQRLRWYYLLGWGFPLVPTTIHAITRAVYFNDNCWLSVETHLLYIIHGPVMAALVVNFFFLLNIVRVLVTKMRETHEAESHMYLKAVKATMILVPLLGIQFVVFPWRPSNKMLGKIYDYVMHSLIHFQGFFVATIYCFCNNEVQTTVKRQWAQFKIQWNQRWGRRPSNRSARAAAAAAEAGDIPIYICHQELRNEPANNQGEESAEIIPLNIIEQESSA
# T1 sequence (looked up) 2: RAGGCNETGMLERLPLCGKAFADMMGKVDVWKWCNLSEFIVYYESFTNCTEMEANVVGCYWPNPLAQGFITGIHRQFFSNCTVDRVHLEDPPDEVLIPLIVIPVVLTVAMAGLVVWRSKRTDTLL
# Target: T1, Amylin 3(a) receptor (human calcitonin …)
# Test: cell-based or functional assay
row,Potency Luciferase [pM],Binder
1,80,X2-RKCNTATCATQRLANFLHHSSNNFGPILPPTNVGSNTY-NH2 (disulfide 3-8; SMILES CC[C@H](C)[C@H](NC(=O)[C@@H]1CCCN1C(=O)CNC(=O)[C@H](Cc1ccccc1)NC(=O)[C@H](CC(N)=O)NC(=O)[C@H](CC(N)=O)NC(=O)[C@H](CO)NC(=O)[C@H](CO)NC(=O)[C@H](Cc1c[nH]cn1)NC(=O)[C@H](Cc1c[nH]cn1)NC(=O)[C@H](CC(C)C)NC(=O)[C@H](Cc1ccccc1)NC(=O)[C@H](CC(N)=O)NC(=O)[C@H](C)NC(=O)[C@H](CC(C)C)NC(=O)[C@H](CCCNC(=N)N)NC(=O)[C@H](CCC(N)=O)NC(=O)[C@@H](NC(=O)[C@H](C)NC(=O)[C@@H]1CSSC[C@H](NC(=O)[C@H](CCCCN)NC(=O)[C@H](CCCNC(=N)N)NC(=O)CC[C@H](NC(=O)CCCCCCCCCCCCCCCCCCC(=O)O)C(=O)O)C(=O)N[C@@H](CC(N)=O)C(=O)N[C@@H]([C@@H](C)O)C(=O)N[C@@H](C)C(=O)N[C@@H]([C@@H](C)O)C(=O)N1)[C@@H](C)O)C(=O)N[C@@H](CC(C)C)C(=O)N1CCC[C@H]1C(=O)N1CCC[C@H]1C(=O)N[C@H](C(=O)N[C@@H](CC(N)=O)C(=O)N[C@H](C(=O)NCC(=O)N[C@@H](CO)C(=O)N[C@@H](CC(N)=O)C(=O)N[C@H](C(=O)N[C@@H](Cc1ccc(O)cc1)C(N)=O)[C@@H](C)O)C(C)C)[C@@H](C)O) [N-alpha-[(S)-4-Carboxy-4-(19-carboxynonadecanoylamino)butyryl]-Arg-[His17]-pramlintide]
2,200,{C20 diacid-γGlu}-CNTATCATQRLANFLRHSSNNFGPILPPTNVGSNTY-NH2 (disulfide 1-6; SMILES CC[C@H](C)[C@H](NC(=O)[C@@H]1CCCN1C(=O)CNC(=O)[C@H](Cc1ccccc1)NC(=O)[C@H](CC(N)=O)NC(=O)[C@H](CC(N)=O)NC(=O)[C@H](CO)NC(=O)[C@H](CO)NC(=O)[C@H](Cc1c[nH]cn1)NC(=O)[C@H](CCCNC(=N)N)NC(=O)[C@H](CC(C)C)NC(=O)[C@H](Cc1ccccc1)NC(=O)[C@H](CC(N)=O)NC(=O)[C@H](C)NC(=O)[C@H](CC(C)C)NC(=O)[C@H](CCCNC(=N)N)NC(=O)[C@H](CCC(N)=O)NC(=O)[C@@H](NC(=O)[C@H](C)NC(=O)[C@@H]1CSSC[C@H](NC(=O)CC[C@H](NC(=O)CCCCCCCCCCCCCCCCCCC(=O)O)C(=O)O)C(=O)N[C@@H](CC(N)=O)C(=O)N[C@@H]([C@@H](C)O)C(=O)N[C@@H](C)C(=O)N[C@@H]([C@@H](C)O)C(=O)N1)[C@@H](C)O)C(=O)N[C@@H](CC(C)C)C(=O)N1CCC[C@H]1C(=O)N1CCC[C@H]1C(=O)N[C@H](C(=O)N[C@@H](CC(N)=O)C(=O)N[C@H](C(=O)NCC(=O)N[C@@H](CO)C(=O)N[C@@H](CC(N)=O)C(=O)N[C@H](C(=O)N[C@@H](Cc1ccc(O)cc1)C(N)=O)[C@@H](C)O)C(C)C)[C@@H](C)O) [N-alpha-[(S)-4-Carboxy-4-(19-carboxynonadecanoylamino)butyryl]-[Arg17]-pramlintide (2-37)]
3,100,CNTATCATQRLANFLAHSSNNFGPILPPTNVGSNTY-NH2 (disulfide 1-6; not fully specified (N-terminus); printed as N-alpha-[(S)-4-Carboxy-4-(19-carboxynonadecanoylamino)butyryl]-[Ala17]-pramlintide (2-37)) [N-alpha-[(S)-4-Carboxy-4-(19-carboxynonadecanoylamino)butyryl]-[Ala17]-pramlintide (2-37)]
4,400,{C20 diacid-γGlu}-CNTATCATQRLANFLGHSSNNFGPILPPTNVGSNTY-NH2 (disulfide 1-6; SMILES CC[C@H](C)[C@H](NC(=O)[C@@H]1CCCN1C(=O)CNC(=O)[C@H](Cc1ccccc1)NC(=O)[C@H](CC(N)=O)NC(=O)[C@H](CC(N)=O)NC(=O)[C@H](CO)NC(=O)[C@H](CO)NC(=O)[C@H](Cc1c[nH]cn1)NC(=O)CNC(=O)[C@H](CC(C)C)NC(=O)[C@H](Cc1ccccc1)NC(=O)[C@H](CC(N)=O)NC(=O)[C@H](C)NC(=O)[C@H](CC(C)C)NC(=O)[C@H](CCCNC(=N)N)NC(=O)[C@H](CCC(N)=O)NC(=O)[C@@H](NC(=O)[C@H](C)NC(=O)[C@@H]1CSSC[C@H](NC(=O)CC[C@H](NC(=O)CCCCCCCCCCCCCCCCCCC(=O)O)C(=O)O)C(=O)N[C@@H](CC(N)=O)C(=O)N[C@@H]([C@@H](C)O)C(=O)N[C@@H](C)C(=O)N[C@@H]([C@@H](C)O)C(=O)N1)[C@@H](C)O)C(=O)N[C@@H](CC(C)C)C(=O)N1CCC[C@H]1C(=O)N1CCC[C@H]1C(=O)N[C@H](C(=O)N[C@@H](CC(N)=O)C(=O)N[C@H](C(=O)NCC(=O)N[C@@H](CO)C(=O)N[C@@H](CC(N)=O)C(=O)N[C@H](C(=O)N[C@@H](Cc1ccc(O)cc1)C(N)=O)[C@@H](C)O)C(C)C)[C@@H](C)O) [N-alpha-[(S)-4-Carboxy-4-(19-carboxynonadecanoylamino)butyryl]-[Gly17]-pramlintide (2-37)]
5,8000,{C20 diacid-γGlu}-CNTATCATQRLANFLPHSSNNFGPILPPTNVGSNTY-NH2 (disulfide 1-6; SMILES CC[C@H](C)[C@H](NC(=O)[C@@H]1CCCN1C(=O)CNC(=O)[C@H](Cc1ccccc1)NC(=O)[C@H](CC(N)=O)NC(=O)[C@H](CC(N)=O)NC(=O)[C@H](CO)NC(=O)[C@H](CO)NC(=O)[C@H](Cc1c[nH]cn1)NC(=O)[C@@H]1CCCN1C(=O)[C@H](CC(C)C)NC(=O)[C@H](Cc1ccccc1)NC(=O)[C@H](CC(N)=O)NC(=O)[C@H](C)NC(=O)[C@H](CC(C)C)NC(=O)[C@H](CCCNC(=N)N)NC(=O)[C@H](CCC(N)=O)NC(=O)[C@@H](NC(=O)[C@H](C)NC(=O)[C@@H]1CSSC[C@H](NC(=O)CC[C@H](NC(=O)CCCCCCCCCCCCCCCCCCC(=O)O)C(=O)O)C(=O)N[C@@H](CC(N)=O)C(=O)N[C@@H]([C@@H](C)O)C(=O)N[C@@H](C)C(=O)N[C@@H]([C@@H](C)O)C(=O)N1)[C@@H](C)O)C(=O)N[C@@H](CC(C)C)C(=O)N1CCC[C@H]1C(=O)N1CCC[C@H]1C(=O)N[C@H](C(=O)N[C@@H](CC(N)=O)C(=O)N[C@H](C(=O)NCC(=O)N[C@@H](CO)C(=O)N[C@@H](CC(N)=O)C(=O)N[C@H](C(=O)N[C@@H](Cc1ccc(O)cc1)C(N)=O)[C@@H](C)O)C(C)C)[C@@H](C)O) [N-alpha-[(S)-4-Carboxy-4-(19-carboxynonadecanoylamino)butyryl]-[Pro17]-pramlintide (2-37)]
6,80,X1-CNTATCATQRLANFLHHSSNNFGPILPPTNVGSNTY-NH2 (disulfide 1-6) [N-alpha-[(S)-4-Carboxy-4-(17-carboxyheptadecanoylamino)butyryl]-[His17]-pramlintide (2-37)]
7,100,X2-RKCNTATCATQRLANFLGHSSNNFGPILPPTNVGSNTY-NH2 (disulfide 3-8; SMILES CC[C@H](C)[C@H](NC(=O)[C@@H]1CCCN1C(=O)CNC(=O)[C@H](Cc1ccccc1)NC(=O)[C@H](CC(N)=O)NC(=O)[C@H](CC(N)=O)NC(=O)[C@H](CO)NC(=O)[C@H](CO)NC(=O)[C@H](Cc1c[nH]cn1)NC(=O)CNC(=O)[C@H](CC(C)C)NC(=O)[C@H](Cc1ccccc1)NC(=O)[C@H](CC(N)=O)NC(=O)[C@H](C)NC(=O)[C@H](CC(C)C)NC(=O)[C@H](CCCNC(=N)N)NC(=O)[C@H](CCC(N)=O)NC(=O)[C@@H](NC(=O)[C@H](C)NC(=O)[C@@H]1CSSC[C@H](NC(=O)[C@H](CCCCN)NC(=O)[C@H](CCCNC(=N)N)NC(=O)CC[C@H](NC(=O)CCCCCCCCCCCCCCCCCCC(=O)O)C(=O)O)C(=O)N[C@@H](CC(N)=O)C(=O)N[C@@H]([C@@H](C)O)C(=O)N[C@@H](C)C(=O)N[C@@H]([C@@H](C)O)C(=O)N1)[C@@H](C)O)C(=O)N[C@@H](CC(C)C)C(=O)N1CCC[C@H]1C(=O)N1CCC[C@H]1C(=O)N[C@H](C(=O)N[C@@H](CC(N)=O)C(=O)N[C@H](C(=O)NCC(=O)N[C@@H](CO)C(=O)N[C@@H](CC(N)=O)C(=O)N[C@H](C(=O)N[C@@H](Cc1ccc(O)cc1)C(N)=O)[C@@H](C)O)C(C)C)[C@@H](C)O) [N-alpha-[(S)-4-Carboxy-4-(19-carboxynonadecanoylamino)butyryl]-Arg-[Gly17]-pramlintide]
8,100,{C20 diacid-γGlu}-CNTATCATQRLANFLSHSSNNFGPILPPTNVGSNTY-NH2 (disulfide 1-6; SMILES CC[C@H](C)[C@H](NC(=O)[C@@H]1CCCN1C(=O)CNC(=O)[C@H](Cc1ccccc1)NC(=O)[C@H](CC(N)=O)NC(=O)[C@H](CC(N)=O)NC(=O)[C@H](CO)NC(=O)[C@H](CO)NC(=O)[C@H](Cc1c[nH]cn1)NC(=O)[C@H](CO)NC(=O)[C@H](CC(C)C)NC(=O)[C@H](Cc1ccccc1)NC(=O)[C@H](CC(N)=O)NC(=O)[C@H](C)NC(=O)[C@H](CC(C)C)NC(=O)[C@H](CCCNC(=N)N)NC(=O)[C@H](CCC(N)=O)NC(=O)[C@@H](NC(=O)[C@H](C)NC(=O)[C@@H]1CSSC[C@H](NC(=O)CC[C@H](NC(=O)CCCCCCCCCCCCCCCCCCC(=O)O)C(=O)O)C(=O)N[C@@H](CC(N)=O)C(=O)N[C@@H]([C@@H](C)O)C(=O)N[C@@H](C)C(=O)N[C@@H]([C@@H](C)O)C(=O)N1)[C@@H](C)O)C(=O)N[C@@H](CC(C)C)C(=O)N1CCC[C@H]1C(=O)N1CCC[C@H]1C(=O)N[C@H](C(=O)N[C@@H](CC(N)=O)C(=O)N[C@H](C(=O)NCC(=O)N[C@@H](CO)C(=O)N[C@@H](CC(N)=O)C(=O)N[C@H](C(=O)N[C@@H](Cc1ccc(O)cc1)C(N)=O)[C@@H](C)O)C(C)C)[C@@H](C)O) [N-alpha-[(S)-4-Carboxy-4-(19-carboxynonadecanoylamino)butyryl]-[Ser17]-pramlintide (2-37)]
9,100,{C20 diacid-γGlu-AEEA}-CNTATCATQRLANFLHHSSNNFGPILPPTNVGSNTY-NH2 (disulfide 1-6)
